These results are taken from article doi:10.1101/2022.03.30.486377 (bioRxiv, 2022).

First the molecules themselves.
B1: C13C9 mAb (antibody, V domains shown)
VH: EVQLVQSGPEVKKPGTSARVSCKASGFTSKNTALQWVRQARGQPLEWMGWIDISNYITNYAQKFRGRLTITWDLSASMAYMELSSLRSEDTAVYYCAAVGKDDDVLTGGNKYFDHWGQGTLVTVSS
VL: SYELTQPPSVSVSPGQTARITCSGDALPKKYAYWYQQKSGQAPVLVIHEDDKRPSGIPGRFSASSSGTTATLTISGAQVEDEADYYCYSTDTNDNHAFGSGTKLTVL
B2: C13B8 mAb (antibody, V domains shown)
VH: QVQLQESGPGLVQPSQTLTLTCTVSGDSISNEDYHWTWIRQHPGKGLEWMGYLQYSGNTNYNPSLKSRMTISVDTSKNQFSLRLNSVTAADTAVYFCATSIVLTGMSNKIQPFDYWGQGTLVTVSS
VL: SYELTQPPSVSVSPGQMARITCSGEALPKKYAYWYQQKGGQFPVLVIYKDTERPSGIPERFSGSSSGTIVTLTISGVQPEDEADYYCLSADTSGTWVFGGGTKLTVL
B3: VN01H1 mAb (antibody, V domains shown)
VH: EVQLVESGGGLVLPGGSLRLSCSASGFTFSDFSMHWVRQSPGKGLEYVSAITSSGSSTYYPDSVKGRFTISRDNSKNTLYLQMGSLRVEDTAVYWCVKNSDVFRFPHLYFDVWGRGTLVTVSS
VL: not shown
B4: VP12E7 mAb (antibody, V domains shown)
VH: QVQLVQSGGGVVQPGESLRLSCSGSGFTFNNYIMHWVRQAPGQGLDYVSGIGSDGRNTNYGDSVKGRFTISRDNSKDTLYLQMTSLRAEDTAFYYCVKGLDVLRFLDLSTPSGERLDAFDIWGQGTMVTVSS
VL: DIVMTQSPSFLSASVGDRVTITCRASQGISNYLAWYQQKPGKAPHLLIYAASTLQSGVPSRFSGSGSGTEFTLTISSLQPEDFATYYCQQLNSYPLFTFGPGTKVDIE
B5: C77G12 mAb (antibody, V domains shown)
VH: EVQLVESGGGVVQPGRSLRISCAVSGFTFGSYAMHWVRQAPGKGLEWVGVMSSDGHNEYYADSVKGRFTISRDNSRNKLYLEMNNLRVDDTAVFYCARGSDYVDDSPPLHYWGQGTLVTVSS
VL: DIQLTQSPSSLSASIGDRVTITCRASQDIANKLAWFQQAPGKAPKSLIYAASRLQSGVPSQFSGSGSGTDFTLTIESLQAGDFATYFCQQYDSFPFTFGPGTKVDVK

For one assay, the target named is SARS-CoV-2 S PentaPro (F817), prefusion S trimer (SARS-CoV-2, Wuhan-Hu-1 sequence, UniProt P0DTC2, stabilised). The assay can be described thus: ELISA. (In general: In an ELISA, binding on a coated surface is turned into a signal by an enzyme label.)
As to B1, the binding result is “binds”.

On to B2, for which the binding result is given as “binds”.

As for B3, the binding result is “binds”.

For B4, the binding result is “binds”.

In the case of B5, the binding result was “binds”.

The target in the next assay is SARS-CoV-2 S2 PentaPro in prefusion conformation (SARS-CoV-2, Wuhan-Hu-1 sequence, UniProt P0DTC2, stabilised). The assay can be described thus: ELISA.
Regarding B1, the binding result is “binds”.

As for B2, the binding result was “binds”.

Turning to B3, the binding result is “binds”.

In the case of B4, the binding result is “binds”.

As for B5, the binding result is reported as “binds”.

A further assay has as its target SARS-CoV-2 S2 in postfusion conformation (SARS-CoV-2 (D614G ectodomain; D614G …, UniProt P0DTC2, strain). The assay can be described thus: ELISA.
With B1, the binding result is recorded as “binds”.

Regarding B2, the binding result is “binds”.

Turning to B3, the binding result is “binds”.

B4: the binding result was “binds”.

B5: the binding result was “binds”.
